In US8067220B2, “Alternative crystal form of monoacylglycerol lipase (MGLL)” (Janssen Pharmaceutica N.V., priority 2008, dated 2011):

B1: mut-MGLL. 1-303, L169S, L176S: human MGLL 1-303 with cap-domain mutations L169S, L176S (protein)
chain: GMPEESSPRRTPQSIPYQDLPHLVNADGQYLFCRYWKPTGTPKALIFVSHGAGEHSGRYEELARMLMGLDLLVFAHDHVGHGQSEGERMVVSDFHVFVRDVLQHVDSMQKDYPGLPVFLLGHSMGGAIAILTAAERPGHFAGMVLISPLVLANPESATTFKVLAAKVLNSVLPNLSSGPIDSSVLSRNKTEVDIYNSDPLICRAGLKVCFGIQLLNAVSRVERALPKLTVPFLLLQGSADRLCDSKGAYLLMELAKSQDKTLKIYEGAYHVLHKELPEVTNSVFHEINMWVSQRTATAGTASPP
B2: wt-MGLL.1-303: wild-type human MGLL isoform 2, amino acids 1-303, with N-terminal His tag and TEV site (protein)
chain: MVDHHHHHHENLYFQGMPEESSPRRTPQSIPYQDLPHLVNADGQYLFCRYWKPTGTPKALIFVSHGAGEHSGRYEELARMLMGLDLLVFAHDHVGHGQSEGERMVVSDFHVFVRDVLQHVDSMQKDYPGLPVFLLGHSMGGAIAILTAAERPGHFAGMVLISPLVLANPESATTFKVLAAKVLNLVLPNLSLGPIDSSVLSRNKTEVDIYNSDPLICRAGLKVCFGIQLLNAVSRVERALPKLTVPFLLLQGSADRLCDSKGAYLLMELAKSQDKTLKIYEGAYHVLHKELPEVTNSVFHEINMWVSQRTATAGTASPP
modifications: N-terminal His tag and TEV site
notes: wild-type human MGLL isoform 2, amino acids 1-303, with N-terminal His tag and TEV site

What was measured:
MGLL [1] = assay: Hydrolysis of coumarin arachidonate (C-A), apparent kcat/KM at [S]<<KM; assay type: biochemical, human; details: estimated; limited by solubility of C-A
Excerpt: (§1) A small fluorescent substrate, 4-methyl coumarin butyrate (4MC-B) was used to compare the activity of the engineered mutants to the activity of wt-MGLL (hMGLL 1-303) (SEQ ID NO: 3). The catalytic efficiency (kcat/KM) for the hydrolysis of the 4MC-B was similar for wt-MGLL (hMGLL 1-303) (SEQ ID NO: 3) and all MGLL mutants tested (Table 2). A larger more aliphatic fluorescent substrate, Coumarin Arachidonate (C-A), structurally more closely related to the MGLL natural substrate, 2-AG, was used to compare the activity of wt-MGLL (hMGLL 1-303) (SEQ ID NO: 3) to TEV protease cleaved mut-MGLL (hMGLL 1-303 L169S, L176S) (SEQ ID NO: 5).
(§2) The Michaelis-Menten parameters for the hydrolysis of 4-methylcoumarin butyrate (4MC-B) and coumarin arachidonate (C-A) substrate were determined using 4-5 nM of MGLL in 20 mM Pipes pH 7 and 150 mM NaCl at 37° C. The change in fluorescence due to substrate hydrolysis was monitored using excitation/emission wavelengths of 335/440 in a Safire II instrument from Tecan. The hyperbolic rates versus substrate concentration curves for the hydrolysis of 4MC-B were fit to the Michaelis-Menten equation using Excel.
The apparent kcat/Km ratio for the hydrolysis of C-A was determined at [S]<<KM. […] The kcat/KM values reported are the average from independent values determined from five substrate concentrations ranging from 700 to 40 nM.

[2] = Size exclusion chromatography of protein purified in the absence of detergent; assay type: physicochemical
Experimental: A pilot purification of wt-MGLL (hMGLL 1-303) (SEQ ID NO: 3), performed in the complete absence of detergent, generated no protein (data not shown). A second purification of wt-MGLL (hMGLL 1-303) (SEQ ID NO: 3) was done with detergent in the lysis buffer only. Frozen cell pellets for wt-MGLL (hMGLL 1-303) (SEQ ID NO: 3) were thawed, resuspended, and lysed in Bugbuster® lysis buffer for 1 hour at 4° C. Bugbuster® lysis buffer is a proprietary lysis buffer from […] that contains detergent. The lysate was clarified by centrifugation at 40,000×g for 1 hr. No detergent was added at this point or during the rest of the purification. From this point forward, the purification protocol and buffers were the same as described below for mut-MGLL. An average of 2.2 mg of wt-MGLL (hMGLL 1-303) (SEQ ID NO: 3) per liter of cell culture was obtained.
Mutant MGLL (mut-MGLL) constructs were purified in the absence of detergent. […] Fractions were analysed by SDS-PAGE. […] Purification yields were determined by Bradford assay using the protein assay kit from BioRad according to manufacturer's instruction with BSA as a standard (Bradford 1976).

MGLL [3] = assay: Michaelis-Menten kinetics, hydrolysis of 4-methylcoumarin butyrate (4MC-B); assay type: biochemical, human; details: substrate 4MC-B; 4-5 nM MGLL, 20 mM Pipes pH 7, 150 mM NaCl, 37° C.; average of 2 or 4 assays
Excerpt: as §1, §2

MGLL [4] = assay: Thermofluor thermal stability assay; assay type: physicochemical, human; details: Thermofluor, 1,8-ANS; for midpoint of the melting transition (Tm): 0.05 mg/ml protein, Pipes pH 7
Excerpt: (§3) Thermofluor® assays detect small changes in the intrinsic melting temperature of proteins based on binding of ligands. Compounds that interact preferentially with the native form of the protein will increase the Tm, the temperature at which half of the protein is unfolded (Pantoliano et al. 2001). The technique monitors changes in the fluorescent intensity of dyes such as 1-anilinonaphthalene-8-sulfonic acid (1,8-ANS). The fluorescent dyes are quenched in aqueous environments but increase in fluorescence on binding to the hydrophobic core of denatured proteins.
as §3, with “The Thermofluor®” for “Thermofluor®”, “assay is a powerful tool to screen for small molecule inhibitors interacting with a protein's active site or allosteric site. The assay detects” for “assays detect”
Thermofluor® assays were conducted to characterize wt-MGLL (hMGLL 1-303) (SEQ ID NO: 3) and mut-MGLL (hMGLL 1-303 L169S, L176S) and evaluate if the MGLL mutants could be used for high-throughput screening using Thermofluor®. Three microliters of protein at a concentration of 0.05 mg/ml in 50 mM Pipes pH 7, 200 mM NaCl, 100 μM 1,8-ANS, and 0.001% Tween was added to pre-dispensed compound plates. Wells were overlaid with silicone oil (1 μL, Fluka, type DC 200) to prevent evaporation. Final compound concentrations varied from 150 to 0.15 μM. Assay plates were heated at a rate of 1° C./min for all experiments over a temperature range sufficient to measure protein unfolding. Fluorescence was measured by continuous illumination with UV light (Hamamatsu LC6) supplied via fiber optic and filtered through a custom band-pass filter (380-400 nm; >6 OD cutoff). Fluorescence emission was detected by measuring light intensity using a CCD camera (Sensys, Roper Scientific) filtered to detect emission at 500±25 nm, resulting in simultaneous and independent readings of all 384 wells. One or more images were collected at each temperature, and the sum of the pixel intensity in a given area of the assay plate was recorded vs temperature, and fit to standard equations to yield the Tm.

[5] = Circular dichroism (CD) structural analysis; assay type: physicochemical; details: 5 μM protein, 10 mM cacodylic acid pH 7, 140 mM NaCl, 200 to 260 nm
Experimental: Circular dichroism experiments were performed on a Circular Dichroism Spectrometer Model 202 from Aviv Instruments Inc. The CD scans of wt-MGLL (hMGLL 1-303) (SEQ ID NO: 3) and TEV protease cleaved mut-MGLL (hMGLL 1-303 L169S, L176S) (SEQ ID NO: 5) (5 μM protein in 10 mM cacodylic acid pH 7 and 140 mM NaCl) were measured from 200 to 260 nm. Temperature melts were monitored at 210 nm.

Molecule | Km (MGLL [1]) | monomer by size exclusion [2] | Kcat (MGLL [3]) | Km (MGLL [3]) | quality of Thermofluor melting transition (MGLL [4]) | midpoint of the melting transition (Tm) (MGLL [4]) | CD scan compared with wt-MGLL purified in the presence of detergent [5] | aggregation by size exclusion [2]
CCCCC/C=C/C/C=C\C/C=C/C/C=C/CCCC(=O)Oc1ccc2ccc(=O)oc2c1 [C-A, Coumarin Arachidonate] | > 30 µM |  |  |  |  |  |  | 
B1 |  | 90% | 0.8 s⁻¹ | 136 µM | strong transition | 56.7 °C | similar | 
B2 |  |  | 1.13 s⁻¹ | 162 µM | very poor transition | 58 °C |  | 100%
